From paper PMC12350170 (2025)

Experiments:
[1] = target: T1, MBP-PHAX103–196 (wild type) (human, UniProt Q9H814 103-196); assay: ITC
T1 chain: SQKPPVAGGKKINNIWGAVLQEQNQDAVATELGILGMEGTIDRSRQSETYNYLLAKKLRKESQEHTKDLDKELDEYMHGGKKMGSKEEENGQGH

[2] = target: MBP-PHAX103–196 R147E, Y152E, Y154E (human, UniProt Q9H814 103-196, R147E | Y152E | Y154E); assay: ITC; CBC bound to m7GpppG
[3] = target: T1, MBP-PHAX103–196 (wild type); assay: ITC; CBC bound to m7GpppG

- Kd [1]: 1.86 µM
- Kd [2]: 1.97 µM
- Kd [3]: 1.45 µM
B1: Human nuclear cap-binding complex (CBC): CBP80ΔNLS with CBP20 (complex)
chain 1: KTSDANETEDHLESLICKVGEKSACSLESNLEGLAGVLEADLPNYKSKILRLLCTVARLLPEKLTIYTTLVGLLNARNYNFGGEFVEAMIRQLKESLKANNYNEAVYLVRFLSDLVNCHVIAAPSMVAMFENFVSVTQEEDVPQVRRDWYVYAFLSSLPWVGKELYEKKDAEMDRIFANTESYLKRRQKTHVPMLQVWTADKPHPQEEYLDCLWAQIQKLKKDRWQERHILRPYLAFDSILCEALQHNLPPFTPPPHTEDSVYPMPRVIFRMFDYTDDPEGPVMPGSHSVERFVIEENLHCIIKSHWKERKTCAAQLVSYPGKNKIPLNYHIVEVIFAELFQLPAPPHIDVMYTTLLIELCKLQPGSLPQVLAQATEMLYMRLDTMNTTCVDRFINWFSHHLSNFQFRWSWEDWSDCLSQDPESPKPKFVREVLEKCMRLSYHQRILDIVPPTFSALCPANPTCIYKYGDESSNSLPGHSVALCLAVAFKSKATNDEIFSILKDVPNPNQDDDDDEGFSFNPLKIEVFVQTLLHLAAKSFSHSFSALAKFHEVFKTLAESDEGKLHVLRVMFEVWRNHPQMIAVLVDKMIRTQIVDCAAVANWIFSSELSRDFTRLFVWEILHSTIRKMNKHVLKIQKELEEAKEKLARQHKRRSDDDDRSSDRKDGVLEEQIERLQEKVESAQSEQKNLFLVIFQRFIMILTEHLVRCETDGTSVLTPWYKNCIERLQQIFLQHHQIIQQYMVTLENLLFTAELDPHILAVFQQFCALQA
chain 2: MSGGLLKALRSDSYVELSQYRDQHFRGDNEEQEKLLKKSCTLYVGNLSFYTTEEQIYELFSKSGDIKKIIMGLDKMKKTACGFCFVEYYSRADAENAMRYINGTRLDDRIIRTDWDAGFKEGRQYGRGRSGGQVRDEYRQDYDAGRGGYGKLAQNQ
